Experimental data published in the supplement of paper PMC7877785.
± gives the uncertainty stated by the source.

Assay: self-splicing fitness, log relative to wild type (ln ratio); higher = more splicing; Tetrahymena group I intron in knt gene, E. coli kanamycin selection, DiMSum; sequences stand for … in CUCUCU…GGAGGGAAAAGUUAUCAGGCAUGCACCUGGUAGCUAGUCUUUAAACCAAUAGAUUGCAUCGGUUUAAAAGGCAAGACCGUCAAAUUGCGGGAAAGGGGUCAACAGCCGUUCAGUACCAAGUCUCAGGGGAAACUUUGAGAUGGCCUUGCAAAGGGUAUGGUAAUAAGCUGACGGACAUGGUCCUAACCACGCAGCCAAGUCCUAAGUCAACAGAUCUUCUGUUGAUAUGGAUGCAGUUCACAGACUAAAUGUCGGUCGGGGAAGAUGUAUUCUUCUCAUAAGAUAUAGUCGGACCUCUCCUUAAUGGGAGCUAGCGGAUGAAGUGAUGCAACACUGGAGCCGCUGGGAACUAAUUUGUAUGCGAAAGUAUAUUGAUUAGUUUUGGAGUACUCGUGGUCG
How it was run: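 Pooled colonies went to amplicon sequencing on an Illumina HiSeq 2500 after six replicate transformations. The plates were LB agar with 100 μg/mL carbenicillin, 50 μM IPTG and 0.2% rhamnose, with or without 25 μg/mL kanamycin, incubated overnight at 37°C or 30°C. The E. coli BL21(DE3) library had all eight P1ex-region intron nucleotides randomised, the intron placed in the knt kanamycin-resistance gene on pET-22b(+). DiMSum fitness is the error-weighted combination of replicate fold changes, kanamycin against none, normalised to wild type.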

Sequence | self-splicing fitness (ln) (30 °C) | self-splicing fitness (ln) (37 °C)
CGCAAGCAAUAUUACGAGAC | -3.4 ± 0.22 | -1.81 ± 0.21
CGCAAGCAAUAUUACGAUGA | -0.874 ± 0.064 | -0.853 ± 0.071
CGCAAGCAAUAUUACGCAAG | -2.84 ± 0.31 | -2.2 ± 0.31
CGCAAGCAAUAUUACGCCCU | -0.736 ± 0.085 | 0.327 ± 0.12
CGCAAGCAAUAUUACGCUCG | -3.87 ± 0.32 | -2.95 ± 0.29
CGCAAGCAAUAUUACGGCCU | -2.59 ± 0.14 | -0.135 ± 0.13
CGCAAGCAAUAUUACGGGAU | -4.29 ± 0.26 | -2.95 ± 0.23
CGCAAGCAAUAUUACGGGGA | -3.1 ± 0.2 | -2.69 ± 0.23
CGCAAGCAAUAUUACGGGUU | -4.62 ± 0.3 | -2.7 ± 0.2
CGCAAGCAAUAUUACGGUAG | -0.472 ± 0.053 | -0.388 ± 0.06
CGCAAGCAAUAUUACGGUUA | -2.32 ± 0.14 | -0.121 ± 0.085
CGCAAGCAAUAUUACGUAAG | -0.308 ± 0.067 | 0.113 ± 0.093
CGCAAGCAAUAUUACGUCAA | -3.1 ± 0.12 | -2.93 ± 0.14
CGCAAGCAAUAUUACGUCGA | -2.24 ± 0.16 | -1.67 ± 0.14
CGCAAGCAAUAUUACGUUCG | -1.86 ± 0.069 | -0.23 ± 0.082
CGCCAGCAAUAUUACGAGGC | -2.66 ± 0.2 | -3.07 ± 0.32
CGCCAGCAAUAUUACGAGGG | -3.28 ± 0.17 | -1.83 ± 0.18
CGCCAGCAAUAUUACGAGUC | -3.11 ± 0.28 | -1.56 ± 0.24
CGCCAGCAAUAUUACGAUCA | -1.58 ± 0.32 | -0.817 ± 0.34
CGCCAGCAAUAUUACGCCCA | -1.42 ± 0.18 | -0.853 ± 0.19
CGCCAGCAAUAUUACGCCUC | -3.25 ± 0.32 | -0.661 ± 0.29
CGCCAGCAAUAUUACGCCUU | -3.11 ± 0.27 | -2.29 ± 0.26
CGCCAGCAAUAUUACGCGUG | -2.06 ± 0.1 | -0.717 ± 0.093
CGCCAGCAAUAUUACGCUCG | -2.21 ± 0.13 | -0.347 ± 0.14
CGCCAGCAAUAUUACGGACC | -1.3 ± 0.15 | -0.361 ± 0.18
CGCCAGCAAUAUUACGGGCG |  | -2.94 ± 0.4

Sequence | self-splicing fitness (ln) (30 °C) | self-splicing fitness (ln) (37 °C)
CGCCAGCAAUAUUACGGGGA | -3.02 ± 0.22 | -3.06 ± 0.27
CGCCAGCAAUAUUACGGUGG | -2.06 ± 0.09 | -2.56 ± 0.18
CGCCAGCAAUAUUACGUAAG | -0.207 ± 0.063 | 0.217 ± 0.074
CGCCAGCAAUAUUACGUCCC |  | -2.37 ± 0.49
CGCCAGCAAUAUUACGUCGA | -2.94 ± 0.12 | -1.24 ± 0.081
CGCCAGCAAUAUUACGUGCG | -3.99 ± 0.26 | -2.33 ± 0.22
CGCGAGCAAUAUUACGAACG | -3.04 ± 0.43 | -2.08 ± 0.32
CGCGAGCAAUAUUACGAGAU | -2.7 ± 0.28 | -2.19 ± 0.26
CGCGAGCAAUAUUACGAGCA | -1.27 ± 0.13 | -0.102 ± 0.18
CGCGAGCAAUAUUACGCAGA | -1.75 ± 0.22 | -1.77 ± 0.18
CGCGAGCAAUAUUACGCAGC | -3.62 ± 0.46 | -1.99 ± 0.34
CGCGAGCAAUAUUACGCAGU | -2.99 ± 0.16 | -2.77 ± 0.17
CGCGAGCAAUAUUACGCGCA |  | -2.91 ± 0.2
CGCGAGCAAUAUUACGCGGA | -2.15 ± 0.22 | -2.71 ± 0.31
CGCGAGCAAUAUUACGGAAA | -2.72 ± 0.26 | -2.24 ± 0.3
CGCGAGCAAUAUUACGGAUC | -2.62 ± 0.23 | -2.28 ± 0.25
CGCGAGCAAUAUUACGGUAA | -2.58 ± 0.23 | -1.58 ± 0.31
CGCGAGCAAUAUUACGGUAC | -3.55 ± 0.22 | -3.97 ± 0.42
CGCGAGCAAUAUUACGGUCA | -2.23 ± 0.17 | -1.63 ± 0.15
CGCGAGCAAUAUUACGGUUA | -2.88 ± 0.26 | -0.646 ± 0.18
CGCGAGCAAUAUUACGUCGU | -3.51 ± 0.23 | -3.58 ± 0.31
CGCGAGCAAUAUUACGUGAA | -3.57 ± 0.28 | -2.56 ± 0.35
CGCGAGCAAUAUUACGUGCA | -2.08 ± 0.099 | -0.511 ± 0.095
CGCGAGCAAUAUUACGUGGU | -3.27 ± 0.15 | -2.64 ± 0.21
CGCGAGCAAUAUUACGUGUC | -3.46 ± 0.19 | -2.6 ± 0.2
CGCUAGCAAUAUUACGAAGA | -2.12 ± 0.46 | 

Sequence | self-splicing fitness (ln) (30 °C) | self-splicing fitness (ln) (37 °C)
CGCUAGCAAUAUUACGAGCG | -4.02 ± 0.39 | -2.69 ± 0.39
CGCUAGCAAUAUUACGAGUA | -0.852 ± 0.11 | -0.525 ± 0.11
CGCUAGCAAUAUUACGCCAA |  | -0.881 ± 0.32
CGCUAGCAAUAUUACGCCCG | -2.1 ± 0.22 | -0.695 ± 0.35
CGCUAGCAAUAUUACGCCCU | 0.0689 ± 0.15 | -0.957 ± 0.24
CGCUAGCAAUAUUACGCCUG | 0.202 ± 0.13 | 0.152 ± 0.16
CGCUAGCAAUAUUACGCGAG | -2.93 ± 0.28 | -2.56 ± 0.21
CGCUAGCAAUAUUACGCGUC | -3.34 ± 0.32 | -3.09 ± 0.39
CGCUAGCAAUAUUACGCUAG | -2.63 ± 0.22 | -2.16 ± 0.27
CGCUAGCAAUAUUACGGACC | -2.14 ± 0.31 | 
CGCUAGCAAUAUUACGGGAU | -3.77 ± 0.36 | -2.4 ± 0.26
CGCUAGCAAUAUUACGGGGC | -2.87 ± 0.22 | -2.29 ± 0.2
CGCUAGCAAUAUUACGGGGG | -2.53 ± 0.14 | -2.43 ± 0.16
CGCUAGCAAUAUUACGGGUC | -3.08 ± 0.21 | -2.9 ± 0.34
CGCUAGCAAUAUUACGGUAU | -3.03 ± 0.15 | -2.39 ± 0.19
CGCUAGCAAUAUUACGUAAU | -3.03 ± 0.16 | -1.53 ± 0.14
CGCUAGCAAUAUUACGUACC | -1.89 ± 0.27 | -0.55 ± 0.2
CGCUAGCAAUAUUACGUAGC | -3.14 ± 0.31 | -1.68 ± 0.37
CGCUAGCAAUAUUACGUCAA | -3.88 ± 0.23 | -3.07 ± 0.23
CGCUAGCAAUAUUACGUCUA | -2.47 ± 0.22 | -1.59 ± 0.34
CGCUAGCAAUAUUACGUGGG | -3.6 ± 0.17 | -2.74 ± 0.21
CGCUAGCAAUAUUACGUUAC | -3.23 ± 0.31 | 
CGGAAGCAAUAUUACGACCA | 0.623 ± 0.2 | -0.13 ± 0.27
CGGAAGCAAUAUUACGACGA | -1.75 ± 0.21 | -0.502 ± 0.15
CGGAAGCAAUAUUACGACUG | -2.02 ± 0.28 | -1.12 ± 0.23
